The source of these data is the supplement of paper PMC9233669.

This sample holds only a part of the variants without activity.

The subject of one data set is biotinyl-Trp-oxazolone. Put plainly: self-aminoacylation, catalytic enhancement (BWO) (fold over background); higher = more active; k-Seq, kA / k0A0; sequences stand for … in GGGAAUGGAUCCACAUCUACGAAUUC…UUCACUGCAGACUUGACGAAGCUG
The gist of the method: (§1)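 Mutagenized RNA pools with a 21-nt variable region (0.43 μM) were reacted with each biotinyl-aminoacyl-oxazolone at 2–1250 μM for 90 minutes at room temperature, in 50 μL HEPES/NaCl/KCl/MgCl2/CaCl2 buffer containing 5% acetonitrile at pH 6.9–7.0. RNA captured on streptavidin was quantified by triplicate qPCR and by Illumina sequencing. The fraction reacted for each sequence was fit to a pseudo-first-order model with bootstrapping, and catalytic enhancement is the median kA divided by the uncatalyzed rate, taken as the low-activity peak of a bimodal Gaussian fit.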

The test system of a further data set is biotinyl-Ile-oxazolone. The data set can be described thus: self-aminoacylation, catalytic enhancement (BIO) (fold over background); higher = more active; k-Seq, kA / k0A0; sequences stand for … in GGGAAUGGAUCCACAUCUACGAAUUC…UUCACUGCAGACUUGACGAAGCUG
The gist of the method: as §1

The next data set deals with biotinyl-Leu-oxazolone. Put plainly: self-aminoacylation, catalytic enhancement (BLO) (fold over background); higher = more active; k-Seq, kA / k0A0; sequences stand for … in GGGAAUGGAUCCACAUCUACGAAUUC…UUCACUGCAGACUUGACGAAGCUG
The gist of the method:
as §1

For a further data set, the system named is biotinyl-Val-oxazolone. The data set can be described thus: self-aminoacylation, catalytic enhancement (BVO) (fold over background); higher = more active; k-Seq, kA / k0A0; sequences stand for … in GGGAAUGGAUCCACAUCUACGAAUUC…UUCACUGCAGACUUGACGAAGCUG
In short, it runs like this:
as §1

Another data set concerns biotinyl-Phe-oxazolone. Put plainly: self-aminoacylation, catalytic enhancement (BFO) (fold over background); higher = more active; k-Seq, kA / k0A0; sequences stand for … in GGGAAUGGAUCCACAUCUACGAAUUC…UUCACUGCAGACUUGACGAAGCUG
In short, it runs like this: as §1

Another data set has as its system biotinyl-Met-oxazolone. The data set can be described thus: self-aminoacylation, catalytic enhancement (BMO) (fold over background); higher = more active; k-Seq, kA / k0A0; sequences stand for … in GGGAAUGGAUCCACAUCUACGAAUUC…UUCACUGCAGACUUGACGAAGCUG
In short, it runs like this: as §1

Take “AUUACCUUGGUCAUCGAGUCA [Fam2.1 aminoacylation ribozyme variant]”: the self-aminoacylation was found to be 0.599 in the data set with biotinyl-Trp-oxazolone; 0.854 in the data set with biotinyl-Ile-oxazolone; 0.786 in the data set with biotinyl-Leu-oxazolone; 0.81 in the data set on biotinyl-Val-oxazolone; 0.473 with biotinyl-Phe-oxazolone; 0.691 in the data set with biotinyl-Met-oxazolone.
Consider “CCACACUUCAAGCUUUCGGUC [Fam1B.1 aminoacylation ribozyme variant]”, for which the self-aminoacylation stood at 1.1 in the data set on biotinyl-Trp-oxazolone; 1.53 in the data set with biotinyl-Ile-oxazolone; 1.3 with biotinyl-Leu-oxazolone; 1.64 in the data set with biotinyl-Val-oxazolone; 0.741 with biotinyl-Phe-oxazolone; 1.17 in the data set on biotinyl-Met-oxazolone.
With “AAGUUUGCUAAGAGUCGCAAA [Fam3.1 aminoacylation ribozyme variant]”, the self-aminoacylation in the data set on biotinyl-Trp-oxazolone amounted to 1.12; in the data set with biotinyl-Ile-oxazolone, 1.01; in the data set with biotinyl-Leu-oxazolone it was 0.88; in the data set on biotinyl-Val-oxazolone, 0.889; in the data set with biotinyl-Phe-oxazolone, 2.02; in the data set on biotinyl-Met-oxazolone it was 1.25.
On to “CUACUUCAAUCAAUCGGUUUG [Fam1A.1 aminoacylation ribozyme variant]”, for which the self-aminoacylation in the data set with biotinyl-Trp-oxazolone was 15.1; in the data set with biotinyl-Ile-oxazolone, 0.895; in the data set with biotinyl-Leu-oxazolone, 1.21; in the data set on biotinyl-Val-oxazolone, 0.96; in the data set with biotinyl-Phe-oxazolone it was 26.6; with biotinyl-Met-oxazolone, 0.886.
As for “AUUACCAUGGUCAUCCAGUGA [Fam2.1 aminoacylation ribozyme variant]”, the self-aminoacylation in the data set on biotinyl-Trp-oxazolone turned out to be 8; with biotinyl-Ile-oxazolone it was 3.62; with biotinyl-Leu-oxazolone, 6.27; in the data set on biotinyl-Val-oxazolone, 3.46; with biotinyl-Phe-oxazolone it was 28.2; with biotinyl-Met-oxazolone it was 5.96.
As for “AAGUUUGCUAAUGGUCGCGAG [Fam3.1 aminoacylation ribozyme variant]”, the self-aminoacylation was 1.82 in the data set on biotinyl-Trp-oxazolone; 1.21 with biotinyl-Ile-oxazolone; 1.59 with biotinyl-Leu-oxazolone; 1.27 in the data set with biotinyl-Val-oxazolone; 8.04 in the data set with biotinyl-Phe-oxazolone; 1.15 with biotinyl-Met-oxazolone.
As for “AUUACCCAGGUCCUCGAGUGA [Fam2.1 aminoacylation ribozyme variant]”, the self-aminoacylation in the data set on biotinyl-Trp-oxazolone came out at 3.69; in the data set on biotinyl-Ile-oxazolone, 2.2; with biotinyl-Leu-oxazolone, 3.11; with biotinyl-Val-oxazolone it was 2.15; in the data set with biotinyl-Phe-oxazolone, 10.3; in the data set on biotinyl-Met-oxazolone, 2.79.
“AAGUUUGGGAAUAGUCGCAAG [Fam3.1 aminoacylation ribozyme variant]”: the self-aminoacylation worked out at 1.69 in the data set with biotinyl-Trp-oxazolone; 1.32 in the data set with biotinyl-Ile-oxazolone; 1.05 in the data set on biotinyl-Leu-oxazolone; 1.25 in the data set with biotinyl-Val-oxazolone; 1.95 in the data set with biotinyl-Phe-oxazolone; 0.876 with biotinyl-Met-oxazolone.
With “CUACUGCAAACAAUCGGUCUU [Fam1A.1 aminoacylation ribozyme variant]”, the self-aminoacylation was found to be 0.857 in the data set with biotinyl-Trp-oxazolone; 0.974 in the data set on biotinyl-Ile-oxazolone; 0.953 in the data set with biotinyl-Leu-oxazolone; 0.836 in the data set on biotinyl-Val-oxazolone; 1.06 with biotinyl-Phe-oxazolone; 0.963 with biotinyl-Met-oxazolone.
For the sequence “AUUCACCUCGGUCAGCGGGUG [Fam2.2 aminoacylation ribozyme variant]”, the self-aminoacylation with biotinyl-Trp-oxazolone was found to be 4.8; with biotinyl-Ile-oxazolone, 3.13; with biotinyl-Leu-oxazolone, 5.84; in the data set on biotinyl-Val-oxazolone it was 3.37; in the data set with biotinyl-Phe-oxazolone, 28.3; in the data set on biotinyl-Met-oxazolone it was 4.51.
In the case of “AUUACCCUAGUCAUCGGGUGA [Fam2.1 aminoacylation ribozyme variant]”, the self-aminoacylation in the data set with biotinyl-Trp-oxazolone amounted to 9.08; in the data set with biotinyl-Ile-oxazolone, 4.76; in the data set on biotinyl-Leu-oxazolone, 8.62; with biotinyl-Val-oxazolone it was 4.8; in the data set with biotinyl-Phe-oxazolone, 49.2; in the data set on biotinyl-Met-oxazolone, 7.55.
Take “CCACACUUCAAGCAACCGGCC [Fam1B.1 aminoacylation ribozyme variant]”: the self-aminoacylation with biotinyl-Trp-oxazolone amounted to 5.33; in the data set with biotinyl-Ile-oxazolone, 3.66; in the data set with biotinyl-Leu-oxazolone, 2.77; in the data set on biotinyl-Val-oxazolone, 3.58; in the data set with biotinyl-Phe-oxazolone it was 17.4; in the data set on biotinyl-Met-oxazolone, 4.29.
On to “AGUCACCUAGGUCAUAGGGUG [Fam2.2 aminoacylation ribozyme variant]”, for which the self-aminoacylation in the data set with biotinyl-Trp-oxazolone came to 2.56; in the data set with biotinyl-Ile-oxazolone it was 2.18; in the data set with biotinyl-Leu-oxazolone, 2.56; in the data set with biotinyl-Val-oxazolone it was 2.17; in the data set on biotinyl-Phe-oxazolone, 9.22; in the data set with biotinyl-Met-oxazolone it was 3.12.
For “CUACCUCAAACAAUCGCUCUG [Fam1A.1 aminoacylation ribozyme variant]”, the self-aminoacylation in the data set with biotinyl-Trp-oxazolone was 1.83; in the data set on biotinyl-Ile-oxazolone, 0.818; with biotinyl-Leu-oxazolone, 1.27; in the data set on biotinyl-Val-oxazolone, 1.17; in the data set with biotinyl-Phe-oxazolone, 0.589; in the data set on biotinyl-Met-oxazolone it was 0.85.
On to “AUAUUUCAAACAAUCGGUCUG [Fam1A.1 aminoacylation ribozyme variant]”, for which the self-aminoacylation in the data set on biotinyl-Trp-oxazolone is 3.15; in the data set with biotinyl-Ile-oxazolone, 0.897; with biotinyl-Leu-oxazolone, 0.891; in the data set with biotinyl-Val-oxazolone, 0.834; with biotinyl-Phe-oxazolone, 5.45; with biotinyl-Met-oxazolone it was 0.844.
In the case of “CGACUUCAAACAAUCGGUCUC [Fam1A.1 aminoacylation ribozyme variant]”, the self-aminoacylation with biotinyl-Trp-oxazolone amounted to 31.1; with biotinyl-Ile-oxazolone, 1.52; with biotinyl-Leu-oxazolone, 1.99; with biotinyl-Val-oxazolone, 1.35; in the data set on biotinyl-Phe-oxazolone, 53.8; in the data set with biotinyl-Met-oxazolone it was 1.59.
For “AAGUUUCCUAAUAGUCGCAAG [Fam3.1 aminoacylation ribozyme variant]”, the self-aminoacylation with biotinyl-Trp-oxazolone came to 1.62; with biotinyl-Ile-oxazolone, 1.57; with biotinyl-Leu-oxazolone, 1.42; in the data set with biotinyl-Val-oxazolone, 1.36; with biotinyl-Phe-oxazolone, 2.47; with biotinyl-Met-oxazolone, 1.34.
Regarding “CCACACUUCAAGUGAUCGGUC [Fam1B.1 aminoacylation ribozyme variant]”, the self-aminoacylation with biotinyl-Trp-oxazolone was 1.24; with biotinyl-Ile-oxazolone, 1.04; in the data set on biotinyl-Leu-oxazolone it was 0.951; with biotinyl-Val-oxazolone, 1.06; with biotinyl-Phe-oxazolone it was 1.72; in the data set on biotinyl-Met-oxazolone it was 1.1.
As to “AUGCACCUAUGUCAUCGGGUG [Fam2.2 aminoacylation ribozyme variant]”, the self-aminoacylation with biotinyl-Trp-oxazolone was found to be 4.24; with biotinyl-Ile-oxazolone, 2.81; in the data set on biotinyl-Leu-oxazolone it was 5.19; in the data set with biotinyl-Val-oxazolone it was 2.48; in the data set on biotinyl-Phe-oxazolone, 26.4; in the data set on biotinyl-Met-oxazolone, 4.11.
As to “CCACAGUUCACGCAAUCGGUC [Fam1B.1 aminoacylation ribozyme variant]”, the self-aminoacylation with biotinyl-Trp-oxazolone was found to be 2.1; in the data set on biotinyl-Ile-oxazolone, 1.45; in the data set with biotinyl-Leu-oxazolone, 1.73; with biotinyl-Val-oxazolone, 1.86; in the data set with biotinyl-Phe-oxazolone it was 3.2; with biotinyl-Met-oxazolone it was 1.51.
On to “CUACUUCAAACAUUCGGUCUA [Fam1A.1 aminoacylation ribozyme variant]”, for which the self-aminoacylation with biotinyl-Trp-oxazolone was 0.89; in the data set on biotinyl-Ile-oxazolone it was 1.03; with biotinyl-Leu-oxazolone it was 0.766; in the data set with biotinyl-Val-oxazolone, 1.02; in the data set with biotinyl-Phe-oxazolone it was 0.783; in the data set on biotinyl-Met-oxazolone, 0.882.
With “AAGUUUGCUAAUAGGCGCAAU [Fam3.1 aminoacylation ribozyme variant]”, the self-aminoacylation came out at 0.968 with biotinyl-Trp-oxazolone; 1.6 in the data set on biotinyl-Ile-oxazolone; 1.46 in the data set with biotinyl-Leu-oxazolone; 1.58 with biotinyl-Val-oxazolone; 1.52 in the data set on biotinyl-Phe-oxazolone; 1.71 with biotinyl-Met-oxazolone.
Turning to “CUACUUCAAGCAAUCGGGCUG [Fam1A.1 aminoacylation ribozyme variant]”, the self-aminoacylation in the data set with biotinyl-Trp-oxazolone turned out to be 3.87; in the data set on biotinyl-Ile-oxazolone, 2.01; in the data set on biotinyl-Leu-oxazolone, 2.58; in the data set with biotinyl-Val-oxazolone, 1.61; in the data set on biotinyl-Phe-oxazolone, 3.43; with biotinyl-Met-oxazolone, 1.8.
Turning to “CUUCACCUAGGUCAUCGGAUG [Fam2.2 aminoacylation ribozyme variant]”, the self-aminoacylation came out at 0.921 in the data set on biotinyl-Trp-oxazolone; 1.06 in the data set with biotinyl-Ile-oxazolone; 0.891 in the data set on biotinyl-Leu-oxazolone; 1.18 with biotinyl-Val-oxazolone; 1 in the data set with biotinyl-Phe-oxazolone; 0.842 in the data set on biotinyl-Met-oxazolone.
Regarding “AAGUUUGCUAGUAAUCGCAAG [Fam3.1 aminoacylation ribozyme variant]”, the self-aminoacylation in the data set on biotinyl-Trp-oxazolone came to 0.849; with biotinyl-Ile-oxazolone it was 0.761; in the data set on biotinyl-Leu-oxazolone it was 0.733; in the data set with biotinyl-Val-oxazolone, 0.819; in the data set with biotinyl-Phe-oxazolone, 0.961; in the data set with biotinyl-Met-oxazolone it was 0.789.
